Results on one substance are retold here after PMC3517971.

Experiment [1] has as its target SpoIIE(590–827), PP2C phosphatase domain of SpoIIE from Bacillus subtilis (B. subtilis) (UniProt P37475). As to the kind of experiment: crystal structure; crystals from 14–15% polyethylene glycol 400, 0.1 M Tris–HCl (pH 8.5), 0.2 M sodium citrate, 0–50 mM MnCl2; space group P6_(1)22, two molecules in the asymmetric unit; 2.6 Å (PDB 3T91).
The target is the same in experiment [2]. As to the kind of experiment: crystal structure; crystals from 0.9–1.2 M sodium acetate, 0.1 M Hepes pH 7.5; protein pre-incubated with 1–2 mM MnCl2 for 30 min; space group P6_(1)22; 2.76 Å (PDB 3T9Q).

Broadly, the stoichiometry N is a count of units in the complex or per binding partner.

For “SpoIIE(590–827), PP2C phosphatase domain of SpoIIE from Bacillus subtilis (from UniProt P37475 590-827) (domain or fragment)”, the stoichiometry N in experiment [1] and in experiment [2] was 2 throughout.
